# Marks after values point to notes of the source that are not given here.
# B1: BR E1-6: HPV-16 E1 region primer/probe set, SEQ ID NO: 43-45 (nucleic acid)
# DNA 1: ATGCACAATTGGCAGACACTAA
# DNA 2: AATCCTTTACAATTTTTGCCTGTGA
# DNA 3: AGTAATGCAAGTGCCTTTCTAAAAAGTA
# modifications: chemistry not given here
# B2: BR E6-1: HPV-16 E6 region (172-373 bp) primer/probe set, SEQ ID NO: 58-60 (nucleic acid)
# DNA 1: CAGTTACTGCGACGTGAGGT
# DNA 2: ACAGCATATGGATTCCCATCTC
# DNA 3: ACTTTGCTTTTCGGGATTTATGCATAGTA
# modifications: chemistry not given here
# B3: BR E1-4: HPV-16 E1 region primer/probe set, SEQ ID NO: 37-39 (nucleic acid)
# DNA 1: ATGCACAATTGGCAGACACTA
# DNA 2: ACAATCCTTTACAATTTTTGCCTGT
# DNA 3: TAATGCAAGTGCCTTTCTAAAAAGT
# modifications: chemistry not given here
# Tests used:
# HPV-16 genome = experiment: qPCR sensitivity against HPV-16 copy number (known-copy HPV-16 DNA among 10 ng normal human DNA); conditions: for reaction under 30 copies of HPV-16 genome: among 10 ng normal DNA, triplicate qPCR; for number of reactions against 10 HPV-16 copies / number of reactions under 30 HPV-16 copies: samples tested 3 times, 10 ng DNA from healthy individual
# Source text: All samples were run in triplicates.
# To seek the most promising primer-probe set in the viewpoint of sensitivity, Applicants evaluated the sensitivity analysis for these candidate primer-probe sets. […] Therefore, the sensitivity of E6 (FIG. 3A) and E7 (FIG. 3B) was also 30 copies. […] The candidate primer-probe sets were the “Min-4” (FIG. 3C), “Min-5” (FIG. 3D), “Min-6” (FIG. 3E), “Max-10” (FIG. 3F), “E6-11” (FIG. 3G), “E6-13” (FIG. 3H), respectively.
# In addition, Applicants performed sensitivity analysis to identify the most sensitive primer/probe set from among the candidate sets.
# To validate the function of primer/probe sets, Applicants calculated the slope of delta Rn against cycle threshold for HPV-16 copy number detection from defined HPV copy number DNA derived from CaSki cell line.
# HPV-16 = experiment: qPCR sensitivity against HPV-HNSCC tumor samples diluted among 10 ng normal human DNA; conditions: for sensitivity under 100 cells / sensitivity under single cells / sensitivity under 10 cells: 32 HPV-HNSCC tumor samples; for sensitivity under single cells: 6.6 pg DNA; for sensitivity under 10 cells: 66 pg DNA; for Sensitivity, 1 cell / Sensitivity, 3 cells / Sensitivity, 10 cells / Sensitivity, 30 cells / Sensitivity, 100 cells: tumor DNA dilution, fraction of 32 samples
molecule,measurement,setting,value
B1,reaction under 30 copies of HPV-16 genome,HPV-16 genome,consistently amplified
same,reaction under 30 copies of HPV-16 genome,HPV-16 genome; listed as Min-6,react consistently
same,number of reactions against 10 HPV-16 copies,HPV-16 genome,2 reactions
same,number of reactions under 30 HPV-16 copies,HPV-16 genome,3 reactions
same,sensitivity under 100 cells,HPV-16,87.5%
same,sensitivity under single cells,HPV-16,15.6%
same,sensitivity under 10 cells,HPV-16,62.5%
same,Threshold of tumor cell numbers for HPV-16 detection,HPV-16; Sample # 1,150.0 tumor cells
same,Threshold of tumor cell numbers for HPV-16 detection,HPV-16; Sample # 2,150.0 tumor cells
same,Threshold of tumor cell numbers for HPV-16 detection,HPV-16; Sample # 3,30.0 tumor cells
same,Threshold of tumor cell numbers for HPV-16 detection,HPV-16; Sample # 4,30.0 tumor cells
same,Threshold of tumor cell numbers for HPV-16 detection,HPV-16; Sample # 5,30.0 tumor cells
same,Threshold of tumor cell numbers for HPV-16 detection,HPV-16; Sample # 6,50.0 tumor cells
same,Threshold of tumor cell numbers for HPV-16 detection,HPV-16; Sample # 7,150.0 tumor cells
same,Threshold of tumor cell numbers for HPV-16 detection,HPV-16; Sample # 8,15.0 tumor cells
same,Threshold of tumor cell numbers for HPV-16 detection,HPV-16; Sample # 9,30.0 tumor cells
same,Threshold of tumor cell numbers for HPV-16 detection,HPV-16; Sample # 10,6.0 tumor cells
same,Threshold of tumor cell numbers for HPV-16 detection,HPV-16; Sample # 11,6.0 tumor cells
same,Threshold of tumor cell numbers for HPV-16 detection,HPV-16; Sample # 12,30.0 tumor cells
same,Threshold of tumor cell numbers for HPV-16 detection,HPV-16; Sample # 13,6.0 tumor cells
same,Threshold of tumor cell numbers for HPV-16 detection,HPV-16; Sample # 14,6.0 tumor cells
same,Threshold of tumor cell numbers for HPV-16 detection,HPV-16; Sample # 15,6.0 tumor cells
same,Threshold of tumor cell numbers for HPV-16 detection,HPV-16; Sample # 16,30.0 tumor cells
same,Threshold of tumor cell numbers for HPV-16 detection,HPV-16; Sample # 17,6.0 tumor cells
same,Threshold of tumor cell numbers for HPV-16 detection,HPV-16; Sample # 18,1.2 tumor cells
same,Threshold of tumor cell numbers for HPV-16 detection,HPV-16; Sample # 19,1.2 tumor cells
same,Threshold of tumor cell numbers for HPV-16 detection,HPV-16; Sample # 20,6.0 tumor cells
same,Threshold of tumor cell numbers for HPV-16 detection,HPV-16; Sample # 21,1.2 tumor cells
same,Threshold of tumor cell numbers for HPV-16 detection,HPV-16; Sample # 22,0.3 tumor cells
same,Threshold of tumor cell numbers for HPV-16 detection,HPV-16; Sample # 23,1.2 tumor cells
same,Threshold of tumor cell numbers for HPV-16 detection,HPV-16; Sample # 24,1.2 tumor cells
same,Threshold of tumor cell numbers for HPV-16 detection,HPV-16; Sample # 25,1.2 tumor cells
same,Threshold of tumor cell numbers for HPV-16 detection,HPV-16; Sample # 26,0.3 tumor cells
same,Threshold of tumor cell numbers for HPV-16 detection,HPV-16; Sample # 27,0.6 tumor cells
same,Threshold of tumor cell numbers for HPV-16 detection,HPV-16; Sample # 28,0.6 tumor cells
same,Threshold of tumor cell numbers for HPV-16 detection,HPV-16; Sample # 29,3.0 tumor cells
same,Threshold of tumor cell numbers for HPV-16 detection,HPV-16; Sample # 30,150.0 tumor cells
same,Threshold of tumor cell numbers for HPV-16 detection,HPV-16; Sample # 31,0.6 tumor cells
same,Threshold of tumor cell numbers for HPV-16 detection,HPV-16; Sample # 32,9.0 tumor cells
same,"Sensitivity, 1 cell",HPV-16,0.156
same,"Sensitivity, 3 cells",HPV-16,0.344
same,"Sensitivity, 10 cells",HPV-16,0.625
same,"Sensitivity, 30 cells",HPV-16,0.844
same,"Sensitivity, 100 cells",HPV-16,0.875
B2,reaction under 30 copies of HPV-16 genome,HPV-16 genome,consistently amplified
same,reaction under 30 copies of HPV-16 genome,HPV-16 genome; listed as E6-11,react consistently
same,number of reactions against 10 HPV-16 copies,HPV-16 genome,one
same,number of reactions under 30 HPV-16 copies,HPV-16 genome,3 reactions
same,sensitivity under 100 cells,HPV-16,87.5%
same,sensitivity under single cells,HPV-16,3.1%
same,sensitivity under 10 cells,HPV-16,46.9%
same,Threshold of tumor cell numbers for HPV-16 detection,HPV-16; Sample # 1,150.0 tumor cells
same,Threshold of tumor cell numbers for HPV-16 detection,HPV-16; Sample # 2,30.0 tumor cells
same,Threshold of tumor cell numbers for HPV-16 detection,HPV-16; Sample # 3,150.0 tumor cells
same,Threshold of tumor cell numbers for HPV-16 detection,HPV-16; Sample # 4,60.0 tumor cells
same,Threshold of tumor cell numbers for HPV-16 detection,HPV-16; Sample # 5,30.0 tumor cells
same,Threshold of tumor cell numbers for HPV-16 detection,HPV-16; Sample # 6,60.0 tumor cells
same,Threshold of tumor cell numbers for HPV-16 detection,HPV-16; Sample # 7,30.0 tumor cells
same,Threshold of tumor cell numbers for HPV-16 detection,HPV-16; Sample # 8,150.0 tumor cells
same,Threshold of tumor cell numbers for HPV-16 detection,HPV-16; Sample # 9,30.0 tumor cells
same,Threshold of tumor cell numbers for HPV-16 detection,HPV-16; Sample # 10,30.0 tumor cells
same,Threshold of tumor cell numbers for HPV-16 detection,HPV-16; Sample # 11,30.0 tumor cells
same,Threshold of tumor cell numbers for HPV-16 detection,HPV-16; Sample # 12,15.0 tumor cells
same,Threshold of tumor cell numbers for HPV-16 detection,HPV-16; Sample # 13,60.0 tumor cells
same,Threshold of tumor cell numbers for HPV-16 detection,HPV-16; Sample # 14,60.0 tumor cells
same,Threshold of tumor cell numbers for HPV-16 detection,HPV-16; Sample # 15,30.0 tumor cells
same,Threshold of tumor cell numbers for HPV-16 detection,HPV-16; Sample # 16,6.0 tumor cells
same,Threshold of tumor cell numbers for HPV-16 detection,HPV-16; Sample # 17,6.0 tumor cells
same,Threshold of tumor cell numbers for HPV-16 detection,HPV-16; Sample # 18,1.2 tumor cells
same,Threshold of tumor cell numbers for HPV-16 detection,HPV-16; Sample # 19,6.0 tumor cells
same,Threshold of tumor cell numbers for HPV-16 detection,HPV-16; Sample # 20,1.2 tumor cells
same,Threshold of tumor cell numbers for HPV-16 detection,HPV-16; Sample # 21,1.2 tumor cells
same,Threshold of tumor cell numbers for HPV-16 detection,HPV-16; Sample # 22,6.0 tumor cells
same,Threshold of tumor cell numbers for HPV-16 detection,HPV-16; Sample # 23,1.2 tumor cells
same,Threshold of tumor cell numbers for HPV-16 detection,HPV-16; Sample # 24,1.2 tumor cells
same,Threshold of tumor cell numbers for HPV-16 detection,HPV-16; Sample # 25,1.2 tumor cells
same,Threshold of tumor cell numbers for HPV-16 detection,HPV-16; Sample # 26,1.2 tumor cells
same,Threshold of tumor cell numbers for HPV-16 detection,HPV-16; Sample # 27,1.0 tumor cells
same,Threshold of tumor cell numbers for HPV-16 detection,HPV-16; Sample # 28,1.0 tumor cells
same,Threshold of tumor cell numbers for HPV-16 detection,HPV-16; Sample # 29,1.0 tumor cells
same,Threshold of tumor cell numbers for HPV-16 detection,HPV-16; Sample # 30,150.0 tumor cells
same,Threshold of tumor cell numbers for HPV-16 detection,HPV-16; Sample # 31,0.6 tumor cells
same,Threshold of tumor cell numbers for HPV-16 detection,HPV-16; Sample # 32,15.0 tumor cells
same,"Sensitivity, 1 cell",HPV-16,0.031
same,"Sensitivity, 3 cells",HPV-16,0.344
same,"Sensitivity, 10 cells",HPV-16,0.469
same,"Sensitivity, 30 cells",HPV-16,0.750
same,"Sensitivity, 100 cells",HPV-16,0.875
B3,reaction under 30 copies of HPV-16 genome,HPV-16 genome,consistently amplified
same,reaction under 30 copies of HPV-16 genome,HPV-16 genome; listed as Min-4,react consistently
same,number of reactions against 10 HPV-16 copies,HPV-16 genome,2 reactions
same,number of reactions under 30 HPV-16 copies,HPV-16 genome,3 reactions
same,sensitivity under 100 cells,HPV-16,93.8%
same,sensitivity under single cells,HPV-16,21.9%
same,sensitivity under 10 cells,HPV-16,78.1%
same,Threshold of tumor cell numbers for HPV-16 detection,HPV-16; Sample # 1,150.0 tumor cells
same,Threshold of tumor cell numbers for HPV-16 detection,HPV-16; Sample # 2,150.0 tumor cells
same,Threshold of tumor cell numbers for HPV-16 detection,HPV-16; Sample # 3,1.2 tumor cells
same,Threshold of tumor cell numbers for HPV-16 detection,HPV-16; Sample # 4,6.0 tumor cells
same,Threshold of tumor cell numbers for HPV-16 detection,HPV-16; Sample # 5,30.0 tumor cells
same,Threshold of tumor cell numbers for HPV-16 detection,HPV-16; Sample # 6,30.0 tumor cells
same,Threshold of tumor cell numbers for HPV-16 detection,HPV-16; Sample # 7,30.0 tumor cells
same,Threshold of tumor cell numbers for HPV-16 detection,HPV-16; Sample # 8,50.0 tumor cells
same,Threshold of tumor cell numbers for HPV-16 detection,HPV-16; Sample # 9,1.2 tumor cells
same,Threshold of tumor cell numbers for HPV-16 detection,HPV-16; Sample # 10,1.2 tumor cells
same,Threshold of tumor cell numbers for HPV-16 detection,HPV-16; Sample # 11,1.2 tumor cells
same,Threshold of tumor cell numbers for HPV-16 detection,HPV-16; Sample # 12,3.0 tumor cells
same,Threshold of tumor cell numbers for HPV-16 detection,HPV-16; Sample # 13,6.0 tumor cells
same,Threshold of tumor cell numbers for HPV-16 detection,HPV-16; Sample # 14,6.0 tumor cells
same,Threshold of tumor cell numbers for HPV-16 detection,HPV-16; Sample # 15,6.0 tumor cells
same,Threshold of tumor cell numbers for HPV-16 detection,HPV-16; Sample # 16,6.0 tumor cells
same,Threshold of tumor cell numbers for HPV-16 detection,HPV-16; Sample # 17,6.0 tumor cells
same,Threshold of tumor cell numbers for HPV-16 detection,HPV-16; Sample # 18,1.2 tumor cells
same,Threshold of tumor cell numbers for HPV-16 detection,HPV-16; Sample # 19,0.3 tumor cells
same,Threshold of tumor cell numbers for HPV-16 detection,HPV-16; Sample # 20,1.2 tumor cells
same,Threshold of tumor cell numbers for HPV-16 detection,HPV-16; Sample # 21,0.6 tumor cells
same,Threshold of tumor cell numbers for HPV-16 detection,HPV-16; Sample # 22,0.3 tumor cells
same,Threshold of tumor cell numbers for HPV-16 detection,HPV-16; Sample # 23,1.2 tumor cells
same,Threshold of tumor cell numbers for HPV-16 detection,HPV-16; Sample # 24,0.6 tumor cells
same,Threshold of tumor cell numbers for HPV-16 detection,HPV-16; Sample # 25,1.2 tumor cells
same,Threshold of tumor cell numbers for HPV-16 detection,HPV-16; Sample # 26,0.6 tumor cells
same,Threshold of tumor cell numbers for HPV-16 detection,HPV-16; Sample # 27,0.6 tumor cells
same,Threshold of tumor cell numbers for HPV-16 detection,HPV-16; Sample # 28,1.0 tumor cells
same,Threshold of tumor cell numbers for HPV-16 detection,HPV-16; Sample # 29,1.0 tumor cells
same,Threshold of tumor cell numbers for HPV-16 detection,HPV-16; Sample # 30,30.0 tumor cells
same,Threshold of tumor cell numbers for HPV-16 detection,HPV-16; Sample # 31,0.6 tumor cells
same,Threshold of tumor cell numbers for HPV-16 detection,HPV-16; Sample # 32,9.0 tumor cells
same,"Sensitivity, 1 cell",HPV-16,0.219
same,"Sensitivity, 3 cells",HPV-16,0.531*
same,"Sensitivity, 10 cells",HPV-16,0.781*
same,"Sensitivity, 30 cells",HPV-16,0.875
same,"Sensitivity, 100 cells",HPV-16,0.938
